Measured values: patent US20120114639A1, “COMPOSITIONS AND METHODS FOR INHIBITING VIRAL AND/OR BACTERIAL INFECTIONS” (priority 2010, published 2012)

B1: TIMP3: blocks MMP activity (protein, UniProt P35625 24-211, looked up)
Metalloproteinase inhibitor 3: CTCSPSHPQDAFCNSDIVIRAKVVGKKLVKEGPFGTLVYTIKQMKMYRGFTKMPHVQYIHTEASESLCGLKLEVNKYQYLLTGRVYDGKMYTGLCNFVERWDQLTLSQRKGLNYRYHLGCNCKIKSCYYLPCFVTSKNECLWTDMLSNFGYPGYQSKHYACIRQKGGYCSWYRGWAPPDKSIINATDP
B2: KGF: keratinocyte growth factor, GFR ligand (protein, UniProt P21781 32-194, looked up)
Fibroblast growth factor 7: CNDMTPEQMATNVNCSSPERHTRSYDYMEGGDIRVRRLFCRTQWYLRIDKRGKVKGTQEMKNNYNIMEIRTVAVGIVAIKGVESEFYLAMNKEGKLYAKKECNEDCNFKELILENHYNTYASAKWTHNGGEMFVALNQKGIPVRGKKTKKEQKTAHFLPMAIT

System: HPV16
Test: HPV16 PsV infection of HaCaT cells, luciferase assay
Format: cell-based, human papillomavirus
Description: FIG. 2. […] (A, B) Immunoblot for syndecan-1 (polyclonal syndecan-1 Ab) after 24 hours at 37° C. in CM (A) or post starvation in SFM and after six hours at 37° C. in Tyrode's Buffer (B); immunoblot for HPV16 L1 released into CM post virus binding for indicated times (C) or 24 hours (E). […] Cells were untreated (U) or pre-treated with BM or MM for one hour, then exposed to HPV16 PsV in the presence of inhibitors in CM. Infection was assayed by quantifying luciferase levels at 24 hours p.i. (F). Data are represented as mean±SEM of three experiments. (G-H) IC50 of HPV16 infectivity inhibition by MMIP inhibitors batimastat and mariniastat. […] HPV16 infection was measured with luciferase assay. […]
FIG. 7. […] Cells were exposed to HPV16 PsV at 100 vge/cell for one hour at 4° C., then washed extensively and shifted to 37° C. in the presence of the indicated inhibitor in CM for 24 hours at which time they were analyzed for luciferase expression. […] (B-C) EGFR knockdown was accomplished using siRNA to EGFR and the percent of EGFR protein remaining in EGFR-siRNA transfected HaCaT cells was determined by immunoblot and compared by densitometry to EGFR levels in cells transfected with a negative control siRNA at 48 hours post transfection. Four separate transfections were analyzed (B) and HPV16 PsV infection levels were measured at 24 hours post infection (48 hours post transfection) in each (C). […]

Row | Molecule | HPV16 infection of HaCaT cells (in words) (CM, luciferase 24 hours p.i.) | restoration of HPV16 infectivity in SFM by added factor (serum-starved HaCaT, HPV16 bound in SFM, 24 hours in SFM plus factor, compared to CM)
1 | B1 | can prevent HPV16 infection | 
2 | B2 |  | partially restore infection levels
